Results: patent publication US20240209080A1 (PROFOUNDBIO US, published 2024)

Tests used:
[1] = target: T1, human FOLR1 on cells (Hela, RPTEC/TERT1, OVCAR3, OV90, IGROV-1, JEG-3, KB, NCI-H441) (human, UniProt P15328 25-234); experiment: cell-based or functional assay
[2] = target: T2, Recombinant His-tagged FOLR1 (Example 5 ELISA) (UniProt P15328 25-233, limits assumed); experiment: ELISA on coated recombinant His-tagged FOLR1, OD450; unit from the axis 'ADC conc ng/ml'
T2 construct: also called FOLR1-his; recombinant protein FOLR-1; not shown: His tag
T2 sequence (P15328 25-233 limits assumed): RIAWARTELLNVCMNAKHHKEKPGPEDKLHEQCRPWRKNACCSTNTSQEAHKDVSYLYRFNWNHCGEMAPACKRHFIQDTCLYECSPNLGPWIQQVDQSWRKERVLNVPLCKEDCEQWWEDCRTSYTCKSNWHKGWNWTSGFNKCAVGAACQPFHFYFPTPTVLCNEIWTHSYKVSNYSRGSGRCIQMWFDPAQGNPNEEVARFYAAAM

[3] = target: T3, human FOLR1 protein, His Tag (ACRO-FO1-H52H1) (human, UniProt P15328 25-233); experiment: ELISA OD450 on human FOLR1 divided by OD450 of IgG level ELISA
T3 construct: not shown: His tag
T3 sequence (P15328 25-233 limits assumed): as above

[4] = target: T2, Recombinant His-tagged FOLR1 (Example 5 …); experiment: ELISA on coated recombinant His-tagged FOLR1, OD450; unit from the axis 'ng/ml'; curves labelled without '-ADC'
[5] = target: T1, human FOLR1 on cells (Hela, …); experiment: flow cytometry on JEG-3 cells, PE anti-human Fc; unit from the axis 'Con.nM'

T1 sequence (P15328 25-234): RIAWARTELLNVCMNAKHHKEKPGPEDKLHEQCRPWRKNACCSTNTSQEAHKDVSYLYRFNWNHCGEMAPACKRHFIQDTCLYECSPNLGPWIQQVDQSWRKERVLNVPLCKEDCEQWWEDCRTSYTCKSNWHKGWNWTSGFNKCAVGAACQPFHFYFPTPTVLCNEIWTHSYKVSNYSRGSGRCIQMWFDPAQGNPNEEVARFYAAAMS

B1: FR107-ADC (reference antibody mirvetuximab huFR107 conjugated to mc-VC-PAB-MMAE) (antibody, V domains shown)
VH: QVQLVQSGAEVVKPGASVKISCKASGYTFTGYFMNWVKQSPGQSLEWIGRIHPYDGDTFYNQKFQGKATLTVDKSSNTAHMELLSLTSEDFAVYYCTRYDGSRAMDYWGQGTTVTVSS
VL: DIVLTQSPLSLAVSLGQPAIISCKASQSVSFAGTSLMHWYHQKPGQQPRLLIYRASNLEAGVPDRFSGSGSKTDFTLTISPVEAEDAATYYCQQSREYPYTFGGGTKLEIK
modifications: mc-VC-PAB-MMAE on cysteine thiols after TCEP reduction (positions not stated; DAR within 3~4)
notes: Control conjugate
Internalization ratio (%), Hela, 4 h [1]: 58.4%
Internalization ratio (%), Hela, 24 h [1]: 75.1%
Internalization ratio (%), OV90, 4 h [1]: 28%
Internalization ratio (%), OVCAR3, 4 h [1]: 26.3%
Internalization ratio (%), OVCAR3, 24 h [1]: 44.8%
EC50 [2]: 3.39 ng/mL

B2: anti-FOLR1 antibody F40 (antibody, V domains shown)
VH: EVQLLESGGGVVQPGRSLRLSCAASGFTFSSYAMHWVRQAPGKGLEWVAVISYDGSNKYYADSVKGRFIISRDNSKNTVYLQMNSLRAEDTAVYYCARPTYVFTYTGSSFDYWGQGTQVTVSS
VL: DIQVTQSPSSLSASLGDTVSITCRASRGLTDSVAWYQQKPGQAPKLLIYAASTLQSGVPSRFGGSGSGSYFTLTITSLQPEDVATYYCQNYKSAPWTFGQGTKVEIK
notes: also called clone F40
Target binding/IgG level [3]: 1.02 ratio of OD450

B3: F8-ADC (antibody F8 conjugated to mc-VC-PAB-MMAE) (antibody, V domains shown)
VH: EVQLLESGGGVVQHGRSLRLSCAASGFTFSSYGMHWVRQAPGKGLEWVAVISYDGSNKYYADSVKGRFTISRDNSKNTLYLQMNSLRAEDTAVYYCARPRAYYGAYGSSFDYWGQGTQVTVSS
VL: EIVMTQSPSSVSASVGDRVAITCRASQGISSWLAWYQQKPGKAPKLLIYAASSLQSGVPSRFSGSGSGTDFTLTISSLQPEDFATYYCQQSYSTPLTFGGGTKVDIK
modifications: mc-VC-PAB-MMAE on cysteine thiols after TCEP reduction (positions not stated; DAR within 3~4)
notes: Antibody-drug conjugate; also called F8 immunoconjugate
Internalization ratio (%), Hela, 4 h [1]: 45.7%
Internalization ratio (%), Hela, 24 h [1]: 73.1%
Internalization ratio (%), OV90, 4 h [1]: 32.7%
Internalization ratio (%), OVCAR3, 4 h [1]: 34.5%
Internalization ratio (%), OVCAR3, 24 h [1]: 47.6%
EC50 [2]: 6.53 ng/mL

B4: anti-FOLR1 antibody F1 (antibody, V domains shown)
VH: EVQLLESGGGVVQPGRSLRLSCAASGFTFSSYGMHWVRQAPGKGLEWVAVISYDGSNKYYADSVKGRFTISRDNSKNTLYLQMNSLRAEDTAVYYCARPRAYYGAYGSSFDYWGQGTQVTVSS
VL: EIVMTQSPSSVSASVGDRVAITCRASQGISSWLAWYQQKPGKAPKLLIYAASSLQSGVPSRFSGSGSGTDFTLTISSLQPEDFATYYCQQSYSTPLTFGGGTKVDIK
notes: also called clone F1
Target binding/IgG level [3]: 1.08 ratio of OD450

B5: anti-FOLR1 antibody F26 (antibody, V domains shown)
VH: EVQLLESGGGVVQRGRSLRLSCAASGFTFSSYGMHWVRQAPGKGLEWVAVISYDGSNKYYADSVKGRFTISRDNSKNTLYLPMNSLRAEDTAVYYCARPRAYYGAYGSSFDYWGQGTQVTVSS
VL: EIVMTQSPSSVSASVGDRVAITCRASQGISSWLAWYQQKPGKAPKLLIYAASSLQSGVPSRFSGSGSGTDFTLTISSLQPEDFATYYCQQSYSTPLTFGGGTKVDIK
notes: also called clone F26
Target binding/IgG level [3]: 1.21 ratio of OD450
EC50 [4]: 4.68 ng/mL

B6: F26-ADC (antibody F26 conjugated to mc-VC-PAB-MMAE) (antibody, V domains shown)
VH: EVQLLESGGGVVQRGRSLRLSCAASGFTFSSYGMHWVRQAPGKGLEWVAVISYDGSNKYYADSVKGRFTISRDNSKNTLYLPMNSLRAEDTAVYYCARPRAYYGAYGSSFDYWGQGTQVTVSS
VL: EIVMTQSPSSVSASVGDRVAITCRASQGISSWLAWYQQKPGKAPKLLIYAASSLQSGVPSRFSGSGSGTDFTLTISSLQPEDFATYYCQQSYSTPLTFGGGTKVDIK
modifications: mc-VC-PAB-MMAE on cysteine thiols after TCEP reduction (positions not stated; DAR within 3~4)
notes: Antibody-drug conjugate; also called F26 immunoconjugate
Internalization ratio (%), Hela, 4 h [1]: 43.3%
Internalization ratio (%), Hela, 24 h [1]: 75.5%
Internalization ratio (%), OV90, 4 h [1]: 21.6%
Internalization ratio (%), OVCAR3, 4 h [1]: 38.3%
Internalization ratio (%), OVCAR3, 24 h [1]: 48.1%
EC50 [2]: 8.04 ng/mL

B7: anti-FOLR1 antibody F131 (antibody, V domains shown)
VH: EVQLLESGGGVVQPGRSLRLSCAASGFTFSSYGMHWVRQAPGKGLEWVAVISYDGSNKYYADSVKGRFTISRANSKNTLYLQMNSLRAEDTAVYYCARPRAYYGAYGSSFDYWGQGTQVTVSS
VL: EIVMTQSPSSVSASVGDRVAITCRASQGISSWLAWYQQKPGKAPKLLIYAASSLQSGVPSRFSGSGSGTDFTLTISSLQPEDFATYYCQQSYSTPLTFGGGTKVDIK
notes: also called F131 mAb; clone F131
Target binding/IgG level [3]: 1.02 ratio of OD450
EC50 [5]: 1.55 nM
EC50 [4]: 8.46 ng/mL

B8: anti-FOLR1 antibody F8 (antibody, V domains shown)
VH: EVQLLESGGGVVQHGRSLRLSCAASGFTFSSYGMHWVRQAPGKGLEWVAVISYDGSNKYYADSVKGRFTISRDNSKNTLYLQMNSLRAEDTAVYYCARPRAYYGAYGSSFDYWGQGTQVTVSS
VL: EIVMTQSPSSVSASVGDRVAITCRASQGISSWLAWYQQKPGKAPKLLIYAASSLQSGVPSRFSGSGSGTDFTLTISSLQPEDFATYYCQQSYSTPLTFGGGTKVDIK
notes: also called clone F8
Target binding/IgG level [3]: 1.12 ratio of OD450
EC50 [4]: 8.48 ng/mL

B9: anti-FOLR1 antibody F48 (antibody, V domains shown)
VH: EVQLLESGGGVVQPGRSLRLSCAASGFTFSSYGMHWVRQAPGKGLEWVAVISYDGSNKYYADSVKGRFTISRDNSKNTLYLHMNSLRAEDTAVYYCARPRAYYGAYGSSFDYWGQGTQVTVSS
VL: EIVMTQSPSSVSASVGDRVAITCRASQGISSWLAWYQQKPGKAPKLLIYAASSLQSGVPSRFSGSGSGTDFTLTISSLQPEDFATYYCQQSYSTPLTFGGGTKVDIK
notes: also called clone F48
Target binding/IgG level [3]: 1.12 ratio of OD450

B10: anti-FOLR1 antibody F100 (antibody, V domains shown)
VH: EVQLLESGGGVVQPGRSLRLSCAASGFTFSSYGMHWVRQAPGKGLEWVAVISYDGSNKYYADSVKGRFTISRPNSKNTLYLQMNSLRAEDTAVYYCARPRAYYGAYGSSFDYWGQGTQVTVSS
VL: EIVMTQSPSSVSASVGDRVAITCRASQGISSWLAWYQQKPGKAPKLLIYAASSLQSGVPSRFSGSGSGTDFTLTISSLQPEDFATYYCQQSYSTPLTFGGGTKVDIK
notes: also called clone F100
Target binding/IgG level [3]: 1.48 ratio of OD450

B11: F131-ADC (antibody F131 conjugated to mc-VC-PAB-MMAE) (antibody, V domains shown)
VH: EVQLLESGGGVVQPGRSLRLSCAASGFTFSSYGMHWVRQAPGKGLEWVAVISYDGSNKYYADSVKGRFTISRANSKNTLYLQMNSLRAEDTAVYYCARPRAYYGAYGSSFDYWGQGTQVTVSS
VL: EIVMTQSPSSVSASVGDRVAITCRASQGISSWLAWYQQKPGKAPKLLIYAASSLQSGVPSRFSGSGSGTDFTLTISSLQPEDFATYYCQQSYSTPLTFGGGTKVDIK
modifications: mc-VC-PAB-MMAE on cysteine thiols after TCEP reduction (positions not stated; DAR within 3~4)
notes: Antibody-drug conjugate; also called F131 immunoconjugate
Internalization ratio (%), Hela, 4 h [1]: 50%
Internalization ratio (%), Hela, 24 h [1]: 74.8%
Internalization ratio (%), OV90, 4 h [1]: 15%
Internalization ratio (%), OVCAR3, 4 h [1]: 35.2%
Internalization ratio (%), OVCAR3, 24 h [1]: 47.7%
EC50 [2]: 6.64 ng/mL

B12: anti-FOLR1 antibody F112 (antibody, V domains shown)
VH: EVQLLESGGGVVQPGRSLRLSCAASGFTFSSYGMHWVRQAPGKGLEWVAVISYDGSNKYYADSVKGRFTISRHNSKNTLYLQMNSLRAEDTAVYYCARPRAYYGAYGSSFDYWGQGTQVTVSS
VL: EIVMTQSPSSVSASVGDRVAITCRASQGISSWLAWYQQKPGKAPKLLIYAASSLQSGVPSRFSGSGSGTDFTLTISSLQPEDFATYYCQQSYSTPLTFGGGTKVDIK
notes: also called clone F112
Target binding/IgG level [3]: 1.12 ratio of OD450

B13: anti-FOLR1 antibody F123 (antibody, V domains shown)
VH: EVQLLESGGGVVQPERSLRLSCAASGFTFSSYGMHWVRQAPGKGLEWVAVISYDGSNKYYADSVKGRFTISRANSKNTLYLQMNSLRAEDTAVYYCARPRAYYGAYGSSFDYWGQGTQVTVSS
VL: EIVMTQSPSSVSASVGDRVAITCRASQGISSWLAWYQQKPGKAPKLLIYAASSLQSGVPSRFSGSGSGTDFTLTISSLQPEDFATYYCQQSYSTPLTFGGGTKVDIK
notes: also called clone F123
Target binding/IgG level [3]: 1.06 ratio of OD450

B14: anti-FOLR1 antibody F138 (antibody, V domains shown)
VH: EVQLLESGGGVVQPGRSLRLSCAASGFTFSSYGMHWVRQAPGKGLEWVAVISYDGSNKYYADSVKGRFTISTHNSKNTLYLQMNSLRAEDTAVYYCARPRAYYGAYGSSFDYWGQGTQVTVSS
VL: EIVMTQSPSSVSASVGDRVAITCRASQGISSWLAWYQQKPGKAPKLLIYAASSLQSGVPSRFSGSGSGTDFTLTISSLQPEDFATYYCQQSYSTPLTFGGGTKVDIK
notes: also called clone F138
Target binding/IgG level [3]: 1.2 ratio of OD450
